The target in the assay is c-kit (mouse) (UniProt P05532).

As for kit ligand, the expansion in cell number after 7 days of coculture on 7-4 stroma (AA4+ Kit+ Flk-2+ cells) (not stated (cell number, Table 2)) was 210.

These data come from patent publication US5997865.
